# B1: 3mut5 (dsDNA)
# DNA 1: AGCAAGTAAGGGAAAACTACTTCAT
# DNA 2: ATGAAGTAGTTTTCCCTTACTTGCT
# B2: 3mut4 (dsDNA)
# DNA 1: AGCAAGTAAGTGCAAACTACTTCAT
# DNA 2: ATGAAGTAGTTTGCACTTACTTGCT
# B3: 3mut3 (dsDNA)
# DNA 1: AGCAAGTAAGGTCAAACTACTTCAT
# DNA 2: ATGAAGTAGTTTGACCTTACTTGCT
# B4: 3mut14 (dsDNA)
# DNA 1: AGCAAGTAAGGGCCAACTACTTCAT
# DNA 2: ATGAAGTAGTTGGCCCTTACTTGCT
# B5: THAP1-C3 deletion mutant (amino acids 143-213) (other)
# chain: MHQRKRIHQLEQQVEKLRKKLKTAQQRCRRQERQLEKLKEVVHFQKEKDDVSERGYVILPNDYFEIVEVPA
# notes: Tested as a Gal4-BD or Gal4-AD fusion, as in vitro translated 35S-labelled protein and as an EGFP fusion
# B6: THAP1-C2 deletion mutant (amino acids 120-213) (other)
# chain: MPPLQTPVNLSVFCDHNYTVEDTMHQRKRIHQLEQQVEKLRKKLKTAQQRCRRQERQLEKLKEVVHFQKEKDDVSERGYVILPNDYFEIVEVPA
# notes: as for B5
# B7: THAP1-C1 deletion mutant (amino acids 90-213) (other)
# chain: KEDLLEPQEQLPPPPLPPPVSQVDAAIGLLMPPLQTPVNLSVFCDHNYTVEDTMHQRKRIHQLEQQVEKLRKKLKTAQQRCRRQERQLEKLKEVVHFQKEKDDVSERGYVILPNDYFEIVEVPA
# notes: Tested as a Gal4-BD or Gal4-AD fusion, as in vitro translated 35S-labelled protein and as an EGFP fusion; also called THAP1ΔTHAP; THAP1?THAP
# B8: THAP1-N3 deletion mutant (amino acids 1-192) (other)
# chain: MVQSCSAYGCKNRYDKDKPVSFHKFPLTRPSLCKEWEAAVRRKNFKPTKYSSICSEHFTPDCFKRECNNKLLKENAVPTIFLCTEPHDKKEDLLEPQEQLPPPPLPPPVSQVDAAIGLLMPPLQTPVNLSVFCDHNYTVEDTMHQRKRIHQLEQQVEKLRKKLKTAQQRCRRQERQLEKLKEVVHFQKEKDD
# notes: as for B5
# B9: human chemokine I-TAC/CXCL11, mature form (amino acids 22-94) (ligand)
# chain: FPMFKRGRCLCIGPGVKAVKVADIEKASIMYPSNNCDKIEVIITLKENKGQRCLNPKSKQARLIIKKVERKNF
# notes: The range is stated on the GenBank entry; Tested as a Gal4-BD fusion (pGBKT7-CXCL11) and as in vitro translated 35S-labelled protein from that vector
# B10: human chemokine ELC/CCL19, mature form (amino acids 22-98) (ligand)
# chain: GTNDAEDCCLSVTQKPIPGYIVRNFHYLLIKDGCRVPAVVFTTLRGRQLCAPPDQPWVERIIQRLQRTSAKMKRRSS
# notes: The range is stated on the GenBank entry; Tested as a Gal4-BD fusion (pGBKT7-CCL19) and as in vitro translated 35S-labelled protein from that vector; also called MIP3b/CCL19
# B11: human chemokine MIG/CXCL9, mature form (amino acids 23-125) (ligand)
# chain: TPVVRKGRCSCISTNQGTIHLQSLKDLKQFAPSPSCEKIEIIATLKNGVQTCLNPDSADVKELIKKWEKQVSQKKKQKNGKKHQKKKVLKVRKSQRSRQKKTT
# notes: The range is stated on the GenBank entry; Tested as a Gal4-BD fusion (pGBKT7-CXCL9) and as in vitro translated 35S-labelled protein from that vector
# Biological target: T1, THAP1 THAP domain (Homo sapiens, UniProt Q9NVV9 SEQ:1-90)
# T1 sequence: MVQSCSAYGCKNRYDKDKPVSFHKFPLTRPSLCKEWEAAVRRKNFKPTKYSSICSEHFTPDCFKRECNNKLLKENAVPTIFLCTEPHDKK
# Assay: EMSA; 20 mM Tris-HCl pH 7.5, 100 mM KCl, room temperature
# Conditions: tags: C-terminal His6 (pET-21c); label: 32P
# Method: To confirm that the THAP domain is a novel sequence specific DNA-binding domain, electrophoretic mobility shift assays (EMSA) were carried out using wild-type or mutant THAP domain responsive elements (THRE) determined by SELEX (see Example 28 and FIGS. 18 and 24). Double-stranded probes used in EMSA experiments were purified on 12% polyacrylamide gels, ³²P end labeled with T4 polynucleotide kinase and quantified by Cerenkov counting. About 20 ng of purified THAP domain from human THAP1 (prepared as described in Example 28) was incubated with 30000 cpm of the appropriate probe (about 2 ng). Binding reactions were carried out for 10 minutes at room temperature in 20 μl binding buffer (20 mM Tris-HCl pH 7.5, 100 mM KCl, 0.1% NP-40, 100 μg/ml BSA, 2.5 mM DTT, 5% glycerol, 200 ng poly (dI-dC)). Electrophoresis was performed on 8% (29:1) polyacrylamide gels containing 5% glycerol. Gels were run in 0.25×TBE at 150V and 4° C., dried and exposed on a phosphoimager screen (Molecular Dynamics). Sequences of wild type and mutant THRE oligonucleotides used in EMSA experiments were as follow (mutations are indicated in bold): wild-type probe 3, 5′-[…]-3′ (SEQ ID NO: 313); mutant probe 3mut1, 5′-[…]-3′ (SEQ ID NO: 314); mutant probe 3mut3, 5′-[…]-3′ (SEQ ID NO: 319); mutant probe 3mut4, 5′-[…]-3′ (SEQ ID NO: 320); mutant probe 3mut14, 5′-[…]-3′ (SEQ ID NO: 321); mutant probe 3mut5, 5′-[…]-3′ (SEQ ID NO: 322).
# For competition experiments, 50-, 150-, and 250-fold molar excess of unlabelled wild-type (THRE competitor, probe 3) or mutant (non-specific competitor, probe 3mut1) THRE oligonucleotides were added to the reaction mixture just before the addition of the probe.
row,Binder,binding result
1,B1,no binding
2,B2,no binding
3,B3,no binding
4,B4,no binding

# Biological target: T2, human THAP1 (THanatos (death)-Associated Protein-1), full length (human, UniProt Q9NVV9 1-213)
# T2 construct: also called hTHAP1; FLJ10477
# T2 sequence: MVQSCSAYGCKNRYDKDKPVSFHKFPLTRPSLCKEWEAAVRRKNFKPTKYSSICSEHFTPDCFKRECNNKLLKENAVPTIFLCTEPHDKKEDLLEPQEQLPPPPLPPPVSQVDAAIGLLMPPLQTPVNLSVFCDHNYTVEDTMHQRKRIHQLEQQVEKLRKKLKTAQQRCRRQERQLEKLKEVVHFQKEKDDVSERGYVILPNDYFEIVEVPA
# Assay: yeast two-hybrid, pGADT7-THAP1 mutant with pGBKT7-THAP1 wild-type
# Conditions: not given
# Method: Two-hybrid interaction between THAP1 mutants and THAP1 wild type was tested by cotransformation of AH109 with pGADT7-THAP1-C1, -C2, -C3, -N1, -N2 or -N3 and pGBKT7-THAP1 wild-type and selection of transformants by His and Ade double auxotrophy according to manufacturer's instructions ([…] two-hybrid system 3, Clontech).
row,Binder,binding result
1,B5,binds
2,B6,binds
3,B7,binds
4,B8,binds

# Biological target: T3, Glutathione S-transferase (GST) control protein (pGEX-2T) (UniProt P08515 1-218 = GST)
# T3 construct: Negative control immobilized on glutathione sepharose; also called GST beads; immobilized GST alone
# Assay: GST pull-down, immobilized GST control, in vitro translated 35S-labelled chemokine
# Conditions: not given
# Method: To confirm the interaction observed in yeast two-hybrid system, we performed in vitro GST pull down assays. THAP1, expressed as a GST-tagged fusion protein and immobilized on glutathione sepharose, was incubated with radiolabeled chemokines that were translated in vitro.
# In vitro-translated chemokines were generated with the TNT-coupled reticulocyte lysate system (Promega, Madison, Wis., USA) using as templates pGBKT7-CCL21, -CCL19, -CXCL9, -CXCL10 and CXCL11 chemokine vectors (see Example 32) or pCMV-SPORT6-CCL5 plasmid (Image clone No. 4185200). In vitro-translated IFNγ cytokine was generated similarly using as template plasmid pGBKT7-IFNγ. A 25 μvolume of ³⁵S-labelled chemokine was incubated with immobilized GST-THAP1 or GST proteins overnight at 4° C., in the following binding buffer: 10 mM NaPO4 pH 8.0, 140 mM NaCl, 3 mM MgCl₂, 1 mM dithiothreitol (DTT), 0.05% NP40, and 0.2 mM phenylmethyl sulphonyl fluoride (PMSF), 1 mM Na vanadate, 50 mM β-glycerophosphate, 25 μg/ml chymotrypsine, 5 μg/ml aprotinin, and 10 μg/ml leupeptin. Beads were then washed 5 times in 1 ml binding buffer. Bound proteins were eluted with 2×Laemmli SDS-PAGE sample buffer, fractionated by 10% SDS-PAGE and visualized by fluorography using Amplify (Amersham Pharmacia Biotech). GST/THAP1 specifically bound to chemokines CCL21, CCL19, CCL5, CXCL9, CXCL10 and CXCL11 but not cytokine IFNγ (FIGS. 19 and 20). […] CXCL10 also bound to immobilized GST-THAP1 (indicated by ++ in the column labelled “In vitro binding to GST-THAP1”).
# T3 sequence (P08515 whole entry): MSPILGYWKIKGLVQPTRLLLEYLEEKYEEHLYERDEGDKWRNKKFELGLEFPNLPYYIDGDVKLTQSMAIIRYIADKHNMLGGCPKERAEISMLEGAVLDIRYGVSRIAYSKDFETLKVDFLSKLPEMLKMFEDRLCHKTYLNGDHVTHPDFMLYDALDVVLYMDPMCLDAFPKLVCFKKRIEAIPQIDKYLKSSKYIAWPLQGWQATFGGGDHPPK
row,Binder,binding result
1,B9,no binding
2,B10,no binding
3,B11,no binding

# Biological target: T4, human chemokine SLC/CCL21, mature form (amino acids 24-134) (human, UniProt O00585 24-134)
# T4 construct: also called SLC/6Ckine; SLC/CCL21 wild type
# T4 sequence: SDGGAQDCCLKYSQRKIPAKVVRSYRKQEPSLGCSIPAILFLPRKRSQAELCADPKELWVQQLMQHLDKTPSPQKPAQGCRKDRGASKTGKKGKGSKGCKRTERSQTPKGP
# Assay: yeast two-hybrid, pGADT7-THAP1 mutant with pGBKT7-SLC/CCL21
# Conditions: not given
# Method: Two-hybrid interaction between THAP1 mutants and chemokine SLC/CCL21 was tested by cotransformation of AH109 with pGADT7-THAP1-C1, -C2, -C3, -N1, -N2 or -N3 and pGBKT7-SLC/CCL21 and selection of transformants by His and Ade double auxotrophy according to manufacturer's instructions ([…] two-hybrid system 3, Clontech). pGBKT7-SLC/CCL21 vector was generated by subcloning the BamHI SLC/CCL21 fragment from pGBT9-SLC (see example 1) into the unique BamHI cloning site of vector pGBKT7 (Clontech).
row,Binder,binding result
1,B5,binds
2,B6,binds

# Biological target: T2, human THAP1 (THanatos …)
# Assay: yeast two-hybrid, pGADT7-THAP1 with pGBKT7-chemokine
# Conditions: not given
# From the text: […]
row,Binder,binding result
1,B10,binds
2,B11,binds
